Source: patent US20160311911A1, “METHODS FOR TREATING ALLERGIC AIRWAY INFLAMMATION” (priority 2015, published 2016)

What was measured:
Type in all cases: cell-based
Conditions in all cases: 100 μg/mL for 18 hours
TCM^Hi cells = experiment: CXCL8 levels in cell supernatants, TCM^Hi cells
Text: (§1) Three HEK 293 cell lines, TCM^Null (TLR4^Null, CD14^Null, MD2^Null), TLR4^Hi (TLR4^Hi, CD14^Null, MD2^Null) and TCM^hi (TLR4^Hi, CD14^Hi, MD2^Hi; InvivoGen, San Diego, Calif.), were used. In some experiments hTERT immortalized normal human bronchial epithelial cells (HBECs) were used, as previously described (17).
(§2) Measurement of CXCL8 levels in cell supernatants. TCM^Null, TLR4^Hi, TCM^Hi, TLR4^Hi-ST, or TLR4^Hi-MD2 cells were stimulated with RWPE, Bermuda grass, rye grass, pigweed, mountain cedar, cat dander, LPS, or Amb a 1 at 100 μg/mL for 18 hours. In some experiments HBECs, HBECs transfected with siRNA against MD2, or sham-transfected HBECs were starved for 24 hours and stimulated with RWPE, Bermuda grass, rye grass, timothy grass, pigweed, Russian thistle, cottonwood, walnut, and cat dander allergenic extracts. Cell supernatants were assayed for CXCL8.

TCM^Null cells = experiment: CXCL8 levels in cell supernatants, TCM^Null cells
Text: as §1, §2

TLR4^Hi cells = experiment: CXCL8 levels in cell supernatants, TLR4^Hi cells
Text: as §1, §2

B1: Amb a 1: major allergen in RWPE, a single protein (protein)
chain: AEDLQEILPVNETRRLTTSGAYNIIDGCWRGKADWAENRKALADCAQGFGKGTVGGKDGDIYTVTSELDDDVANPKEGTLRFGAAQNRPLWIIFERDMVIRLDKEMVVNSDKTIDGRGAKVEIINAGFTLNGVKNVIIHNINMHDVKVNPGGLIKSNDGPAAPRAGSDGDAISISGSSQIWIDHCSLSKSVDGLVDAKLGTTRLTVSNSLFTQHQFVLLFGAGDENIEDRGMLATVAFNTFTDNVDQRMPRCRHGFFQVVNNNYDKWGSYAIGGSASPTILSQGNRFCAPDERSKKNVLGRHGEAAAESMKWNWRTNKDVLENGAIFVASGVDPVLTPEQSAGMIPAEPGESALSLTSSAGVLSCQPGAPC
CXCL8 secretion from TCM^Hi cells (TCM^Hi cells): induced CXCL8 secretion
CXCL8 secretion from TCM^Null cells (TCM^Null cells): only in TCM^Hi cells
CXCL8 secretion from TLR4^Hi cells (TLR4^Hi cells): only in TCM^Hi cells
